Test results published in patent publication US6432920B1, “Nck SH3 binding peptides” (Cytogen Corporation, priority 1994, dated 2002).
Entries after “also recorded” stand apart in the source; their conditions may differ.

Assays:
[1] = molecular target: Src and PI-3′ Kinase SH3 domains; settings: Yu et al., biased synthetic peptide library; read-out: binding affinity; cited from earlier work
Src SH3-GST = molecular target: T1, Src SH3-GST (Homo sapiens, UniProt P12931); experiment: Biotinylated synthetic peptide binding ELISA to immobilized Src SH3-GST; settings: for binding to Src SH3 domain (Src SH3-GST): 10 μM biotinylated peptide, streptavidin-alkaline phosphatase ELISA, FIGS. 7 and 8; for relative specificity of binding for SH3 domains of different proteins: Src family versus Grb2, Crk, Abl, PLCγ SH3 domains, FIG. 8
T1 construct: Bacterially expressed Src SH3 glutathione-S-transferase (Src-GST) fusion protein was purified from bacterial lysates; made in house; host or cells: bacteria (pGEX vector)
Method: (§1) These biotinylated peptides were assayed for direct binding to immobilized Src SH3-GST. […] Furthermore, a strong correlation was observed between the similarity of a given peptide to the preferred core consensus sequence RPLP(P/M)LP (SEQ ID NO:96) and the peptide's affinity for Src SH3-GST.
(§2) The preparation of Src-GST fusion protein was first described by Smith and Johnson, in Gene (1988) 67:31, the disclosure of which is incorporated by reference herein. Briefly, pGEX-derived (Pharmacia, Piscataway, N.J.) constructs expressing GST fusion proteins containing the SH3 domains of Src, Grb2, Crk, Abl, or PLCγ were obtained from Dr. Channing Der (University of North Carolina at Chapel Hill); a construct expressing the SH3 domain of Yes was obtained from Dr. Marius Sudol (Rockefeller University). The use of the pGEX bacterial expression vector for the production of GST-SH3 fusion proteins is well-known to those in the art. See, e.g., Cicchetti, P. et al., in Science (1992) 257:803-806. Briefly, the coding region for a particular SH3 domain can be fused in-frame at the Bam HI site of pGEX-2T. Thus, fusion proteins were prepared as per the manufacturer's instructions, and quantified by Coomassie Blue staining of SDS-polyacrylamide gels. Microtiter wells were coated with 5-20 μg GST-SH3 fusion protein in 100 mM NaHCO3, pH 8.5, blocked with 100 mM NaHCO3 (pH 8.5) 1% BSA, and washed. All washes consisted of five applications of 1XPBS, 0.1% Tween 20, 0.1% BSA (Buffer A). Where appropriate, the amount of protein bound to each well was quantified with an anti-GST antibody-based ELISA (Pharmacia, Piscataway, N.J.), and with a GST-binding phage, isolated during the course of this work.
Bacterially expressed Src SH3 glutathione-S-transferase (Src-GST) fusion protein was purified from bacterial lysates using glutathione agarose 4B (Pharmacia), according to the manufacturer's instructions. Bound Src-GST fusion protein was eluted from the glutathione agarose with 10 mM glutathione in PBS. Microtiter wells were then coated with Src-GST fusion protein (1-10 μg/well, in 50 mM NaHCO3, pH 8.5) overnight at 4° C. To block non-specific binding of phage, 100 μL 1% BSA in 100 mM NaHCO3, pH 8.5, was added to each well and allowed to incubate at room temperature for 1 hour. The wells were then washed five times with 200 μL PBS, 0.1% Tween™ 20, 0.1% BSA (Buffer A).
(§3) Peptides were obtained from Research Genetics (Birmingham, Ala.), Chiron Mimotopes (Victoria, Australia), or synthesized by conventional techniques by Dr. J. Mark Carter of Cytogen Corporation (Princeton, N.J.). Peptide purity was assessed by HPLC and/or mass spectrometry. Biotinylated peptides were synthesized with either a KSGSG (SEQ ID NO:103) or a GSGS (SEQ ID NO:104) peptide linker (a spacer) between the biotin and the N-terminus of the peptide. Binding experiments were performed as above, excepting the use of 10 μM peptide instead of phage. Bound biotinylated peptide was detected with streptavidin conjugated to alkaline phosphatase (Sigma Chemical Co., St. Louis, Mo.). After one hour incubation period at room temperature, the wells were washed, and a solution of 3 mM p-nitrophenyl-phosphate (US Biochemicals, Cleveland, Ohio) in 50 mM NaCO3 (pH 9.8), and 50 mM MgCl2 was added and color allowed to develop. Signals were read with an ELISA plate reader (Molecular Devices, Menlo Park, Calif.) at 405 nm wavelength. Binding experiments were performed in triplicate.

PLCγ1 SH2SH3-GST = experiment: Biotinylated synthetic peptide binding ELISA to immobilized PLCγ1 SH2SH3-GST; settings: 10 μM biotinylated peptide, FIG. 8
Method: (§4) As mentioned above, the relative specificity of binding was explored. Thus, the relative binding of Src SH3-selected peptides to equal amounts of GST fusions to SH3 domains from different proteins was determined (FIG. 8). While all of the library-derived peptides bound the Src and Yes SH3 domains almost equally well, none of the peptides (with the exception of peptide T12.SRC3.1, the most divergent peptide tested) bound the SH3 domains of Grb2, Crk, Abl or PLCγ1 appreciably.
as §2, with “Briefly, the coding region for a particular SH3 domain can be fused in-frame at the Bam HI site of pGEX-2T.” left out, “Microtiter wells were coated with 5-20 μg GST-SH3 fusion protein in 100 mM NaHCO3, pH 8.5, blocked with 100 mM NaHCO3 (pH 8.5) 1% BSA, and washed. All washes consisted of five applications of 1XPBS, 0.1% Tween 20, 0.1% BSA (Buffer A).” left out
(§5) Peptides were obtained from Research Genetics (Birmingham, Ala.), Chiron Mimotopes (Victoria, Australia), or synthesized by conventional techniques by Dr. J. Mark Carter of Cytogen Corporation (Princeton, N.J.). Peptide purity was assessed by HPLC and/or mass spectrometry. […] Bound biotinylated peptide was detected with streptavidin conjugated to alkaline phosphatase (Sigma Chemical Co., St. Louis, Mo.). […] Signals were read with an ELISA plate reader (Molecular Devices, Menlo Park, Calif.) at 405 nm wavelength. […]

Grb2-GST = molecular target: T2, Grb2-GST (Homo sapiens, UniProt P62993); experiment: Biotinylated synthetic peptide binding ELISA to immobilized Grb2-GST; settings: 10 μM biotinylated peptide, FIG. 8
T2 construct: made in house; host or cells: bacteria (pGEX vector)
Method: as §4
as §2, with “Briefly, the coding region for a particular SH3 domain can be fused in-frame at the Bam HI site of pGEX-2T.” left out, “Microtiter wells were coated with 5-20 μg GST-SH3 fusion protein in 100 mM NaHCO3, pH 8.5, blocked with 100 mM NaHCO3 (pH 8.5) 1% BSA, and washed. All washes consisted of five applications of 1XPBS, 0.1% Tween 20, 0.1% BSA (Buffer A).” left out
as §5

Yes SH3-GST = molecular target: T3, Yes SH3-GST (Homo sapiens, UniProt P07947); experiment: Biotinylated synthetic peptide binding ELISA to immobilized Yes SH3-GST; settings: 10 μM biotinylated peptide, FIG. 8
T3 construct: a construct expressing the SH3 domain of Yes was obtained from Dr. Marius Sudol (Rockefeller University); made in house; host or cells: bacteria (pGEX vector)
Method: as §1, §2, §3

Xenopus laevis oocytes = experiment: Progesterone-induced X. laevis oocyte maturation (germinal vesicle breakdown); format: cell-based; settings: oocytes injected with 40 nL of 100 μM test peptide, 2 μg/mL progesterone; relative to water
Method: Briefly, Stage VI oocytes were prepared and injected as previously described (see, Kay, B. K., in Methods in Cell Biol. (1991) 36:663-669). Oocytes were injected with 40 nL of 100 μM test peptide or water. After injection, the oocytes were placed in 2 μg/mL progesterone (Sigma, St. Louis, MO) and scored hourly for germinal vesicle breakdown (GVBD). LAPPKPPLPEGEV is SEQ ID NO:70.
Moreover, Xenopus laevis oocytes injected with mRNA encoding constitutively active Src undergo progesterone-induced maturation at an accelerated rate relative to oocytes injected with water or c-Src mRNA. Unger, T. F. and Steele, R. E. in Mol. Cell. Biol. (1992) 12:5485-5498. To explore the ability of the library-derived Src SH3-binding peptides to exert a biochemical effect in vivo, the influence of the peptides on the maturation of Xenopus laevis oocytes was examined. […] The magnitude of this effect is roughly equivalent to that seen with injection of mRNA encoding constituitively active Src. See, e.g., FIG. 3B in Unger, T. F. and Steele, R. E., supra. […]
Segments of adult ovary were removed surgically and incubated in 0.1% collagenase type D (Boehringer Mannheim, Indianapolis, Ind.) in Ca^2+-free OR2 (82.5 mM NaCl, 2.5 mM KCl, 1.0 mM MgCl2, 1.0 mM Na2HPO4, 5.0 mM HEPES, and 3.8 mM NaOH, pH 7.6). […] Oocytes were scored at hourly time points for germinal vesicle breakdown (GVBD).

[2] = molecular target: cellular Src of Xenopus laevis oocytes (Xenopus laevis); experiment: cell-based or functional assay

T3 sequence (P07947 91-152 limits assumed): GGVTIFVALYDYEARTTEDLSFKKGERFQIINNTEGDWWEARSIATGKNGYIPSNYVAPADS
T2 sequence (P62993 whole entry): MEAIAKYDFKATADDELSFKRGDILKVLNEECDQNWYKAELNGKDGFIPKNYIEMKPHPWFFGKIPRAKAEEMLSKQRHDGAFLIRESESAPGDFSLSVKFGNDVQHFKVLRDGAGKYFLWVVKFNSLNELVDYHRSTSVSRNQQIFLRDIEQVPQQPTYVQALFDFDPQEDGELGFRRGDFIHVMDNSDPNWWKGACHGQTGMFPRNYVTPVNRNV

| Molecule | binding to Src SH3 domain (Src SH3-GST) (Src SH3-GST) | relative specificity of binding for SH3 domains of different proteins (Src SH3-GST) | binding to Yes SH3 domain (Yes SH3-GST) (Yes SH3-GST) | other results |
| --- | --- | --- | --- | --- |
| RKLPPRPRR [“composite” peptide of Yu et al] |  |  |  | Kd [1]: 7.6 µM |
| ANPSPATRPLPTR [synthetic peptide of phage clone T12.SRC3.2] | comparable to the core consensus sequence | Src family specificity |  | binding to Src SH3 domain (Src SH3-GST) (Src SH3-GST; listed as APSPATRPLPTR): avid binding affinity |
| RPLPPLP | less effective; also recorded: only weakly |  |  |  |
| GPHRRLPPTPATR [synthetic peptide of phage clone T12.SRC3.3] | much more avidly; also recorded: avid binding affinity | specific to src family SH3 domains | much more avidly | binding to PLCγ SH3 domain (PLCγ1 SH2SH3-GST) (PLCγ1 SH2SH3-GST): little affinity; binding to Grb2 SH3 domain (Grb2-GST) (Grb2-GST): little affinity |
| RSTPRPLPMLPTTR [synthetic peptide of phage clone R8C.YES3.5] | much more avidly; also recorded: strong specific binding affinity | highly specific | much more avidly |  |
| GTVEPVPPPVPPRRRPESA [reference compound] | much less well |  |  |  |
| RSTPRPLPPLPTTR [representative consensus motif with flanking residues of R8C.YES3.5] | much more avidly; also recorded: strong specific binding affinity | highly specific | much more avidly |  |
| GILAPPVPPRNTR [synthetic peptide of phage clone T12.SRC3.1] | much more avidly; also recorded: binds generically; also recorded: avid binding affinity | binds generically to a broad range of SH3 domains; also recorded: more generic SH3 domain-binding characteristics | much more avidly | binding to PLCγ SH3 domain (PLCγ1 SH2SH3-GST) (PLCγ1 SH2SH3-GST): binds generically; binding to Grb2 SH3 domain (Grb2-GST) (Grb2-GST): binds generically |
| VLKRPLPIPPVTR [synthetic peptide of phage clone T12.SRC3.6] | much more avidly; also recorded: strong binding affinities; also recorded: avid binding affinity | Src preferential | much more avidly | binding to PLCγ SH3 domain (PLCγ1 SH2SH3-GST) (PLCγ1 SH2SH3-GST): little binding affinities; binding to Grb2 SH3 domain (Grb2-GST) (Grb2-GST): some binding affinities; rate of progesterone-induced oocyte maturation (germinal vesicle breakdown) (Xenopus laevis oocytes): faster rate; also recorded: increased rate |
| KISPPTPKPRPPRPLPV [reference compound] | much less well |  |  |  |
| LAPPKPPLPEGEV [proline-rich region of the cytoskeletal protein vinculin, control peptide, reference compound] | much less well |  |  | rate of progesterone-induced oocyte maturation (germinal vesicle breakdown) (Xenopus laevis oocytes): not |
| VLKRPLPIPPVTR (modifications not checked) […] |  |  |  | rate of progesterone-induced maturation of Xenopus laevis oocytes (germinal vesicle breakdown) [2]: 1 h |
